From paper PMC5138130 (Journal of molecular biology, 2016) come the findings set out here.

Data set [1] concerns the target Bni5(1–313) used for FFF-MALS (S. cerevisiae) (UniProt P53890). The data set can be described thus: field-flow fractionation with multi-angle light scattering.
For data set [2], the target named is T1, (His)8-3C protease cleavage site-Bni5 fusion (wild-type Bni5) (S. cerevisiae, UniProt P53890 1-448).
T1 sequence (looked up): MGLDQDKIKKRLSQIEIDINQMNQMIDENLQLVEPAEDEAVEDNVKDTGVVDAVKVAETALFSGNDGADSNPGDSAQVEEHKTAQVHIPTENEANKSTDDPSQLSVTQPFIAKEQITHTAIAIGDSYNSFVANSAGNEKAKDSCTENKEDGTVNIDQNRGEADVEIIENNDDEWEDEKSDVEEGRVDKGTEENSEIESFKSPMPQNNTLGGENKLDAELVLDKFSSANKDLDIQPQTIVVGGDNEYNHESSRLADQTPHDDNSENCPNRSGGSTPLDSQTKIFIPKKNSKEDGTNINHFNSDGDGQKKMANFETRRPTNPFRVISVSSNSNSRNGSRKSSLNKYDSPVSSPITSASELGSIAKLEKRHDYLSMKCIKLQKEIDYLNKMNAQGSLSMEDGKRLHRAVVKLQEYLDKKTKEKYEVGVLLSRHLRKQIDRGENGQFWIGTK
The data set can be described thus: negative-stain electron microscopy with 2D class averages.

Data set [3] deals with the molecule itself. Described as above.
Data set [4] has as its target Otherwise Cys-less septin hetero-octamers capped with Cdc11(Δα0) E294C labeled with AF555 (S. cerevisiae) (UniProt P32458). The experiment in a line: FRET or BRET. For orientation: Bioluminescence resonance energy transfer reports proximity on the nanometre scale.
Data set [5] addresses T2, (His)8-3C protease cleavage site-Bni5 fusion (wild-type Bni5) (S. cerevisiae), P53890.
T2 chain: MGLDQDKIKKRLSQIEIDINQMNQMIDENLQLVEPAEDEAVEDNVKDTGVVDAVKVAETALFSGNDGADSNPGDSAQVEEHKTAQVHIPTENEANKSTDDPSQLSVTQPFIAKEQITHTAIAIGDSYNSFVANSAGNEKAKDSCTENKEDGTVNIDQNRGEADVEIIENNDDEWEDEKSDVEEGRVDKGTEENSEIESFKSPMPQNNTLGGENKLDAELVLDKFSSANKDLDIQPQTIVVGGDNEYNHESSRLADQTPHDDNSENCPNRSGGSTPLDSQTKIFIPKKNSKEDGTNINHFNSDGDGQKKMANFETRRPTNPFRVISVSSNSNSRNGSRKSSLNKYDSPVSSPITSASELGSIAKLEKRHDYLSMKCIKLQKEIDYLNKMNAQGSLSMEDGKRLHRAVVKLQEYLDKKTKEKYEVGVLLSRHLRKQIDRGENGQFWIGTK
The experiment in a line: AUC. Particulars: remark: other sources report otherwise.

The target of data set [6] is T2, (His)8-3C protease cleavage site-Bni5 …. The experiment in a line: field-flow fractionation with multi-angle light scattering. To be noted: remark: other sources report otherwise.

Where “and” joins values, the source holds several entries; their conditions need not be identical. Equal entries are not always repeated.

In general, stoichiometry N refers to a count of units in the complex or per binding partner. As for “Bni5(1–313) used for FFF-MALS (from UniProt P53890 1-313) (domain or fragment)”, the stoichiometry N in data set [1] was 2 and 4.

B1: Cdc11 (wild type), terminal subunit of the septin hetero-octamer (natural protein, S. cerevisiae, UniProt P32458 1-415, looked up)
chain: MSGIIDASSALRKRKHLKRGITFTVMIVGQSGSGRSTFINTLCGQQVVDTSTTILLPTDTSTEIDLQLREETVELEDDEGVKIQLNIIDTPGFGDSLDNSPSFEIISDYIRHQYDEILLEESRVRRNPRFKDGRVHCCLYLINPTGHGLKEIDVEFIRQLGSLVNIIPVISKSDSLTRDELKLNKKLIMEDIDRWNLPIYNFPFDEDEISDEDYETNMYLRTLLPFAIIGSNEVYEMGGDVGTIRGRKYPWGILDVEDSSISDFVILRNALLISHLHDLKNYTHEILYERYRTEALSGESVAAESIRPNLTKLNGSSSSSTTTRRNTNPFKQSNNINNDVLNPASDMHGQSTGENNETYMTREEQIRLEEERLKAFEERVQQELLLKRQELLQREKELREIEARLEKEAKIKQEE
In the case of B1, the binding result in data set [2] was “binds”.

B2: Wild-type Cdc11-capped septin hetero-octamers (Cdc11-Cdc12-Cdc3-Cdc10-Cdc10-Cdc3-Cdc12-Cdc11) used for EM (complex, S. cerevisiae)
chain 1: MSGIIDASSALRKRKHLKRGITFTVMIVGQSGSGRSTFINTLCGQQVVDTSTTILLPTDTSTEIDLQLREETVELEDDEGVKIQLNIIDTPGFGDSLDNSPSFEIISDYIRHQYDEILLEESRVRRNPRFKDGRVHCCLYLINPTGHGLKEIDVEFIRQLGSLVNIIPVISKSDSLTRDELKLNKKLIMEDIDRWNLPIYNFPFDEDEISDEDYETNMYLRTLLPFAIIGSNEVYEMGGDVGTIRGRKYPWGILDVEDSSISDFVILRNALLISHLHDLKNYTHEILYERYRTEALSGESVAAESIRPNLTKLNGSSSSSTTTRRNTNPFKQSNNINNDVLNPASDMHGQSTGENNETYMTREEQIRLEEERLKAFEERVQQELLLKRQELLQREKELREIEARLEKEAKIKQEE
chain 2: MSAATATAAPVPPPVGISNLPNQRYKIVNEEGGTFTVMLCGESGLGKTTFINTLFQTVLKRADGQQHRQEPIRKTVEIDITRALLEEKHFELRVNVIDTPGFGDNVNNNKAWQPLVDFIDDQHDSYMRQEQQPYRTKKFDLRVHAVLYFIRPTGHGLKPIDIETMKRLSTRANLIPVIAKADTLTAQELQQFKSRIRQVIEAQEIRIFTPPLDADSKEDAKSGSNPDSAAVEHARQLIEAMPFAIVGSEKKFDNGQGTQVVARKYPWGLVEIENDSHCDFRKLRALLLRTYLLDLISTTQEMHYETYRRLRLEGHENTGEGNEDFTLPAIAPARKLSHNPRYKEEENALKKYFTDQVKAEEQRFRQWEQNIVNERIRLNGDLEEIQGKVKKLEEQVKSLQVKKSHLK
chain 3: MSLKEEQVSIKQDPEQEERQHDQFNDVQIKQESQDHDGVDSQYTNGTQNDDSERFEAAESDVKVEPGLGMGITSSQSEKGQVLPDQPEIKFIRRQINGYVGFANLPKQWHRRSIKNGFSFNLLCVGPDGIGKTTLMKTLFNNDDIEANLVKDYEEELANDQEEEEGQGEGHENQSQEQRHKVKIKSYESVIEENGVKLNLNVIDTEGFGDFLNNDQKSWDPIIKEIDSRFDQYLDAENKINRHSINDKRIHACLYFIEPTGHYLKPLDLKFMQSVYEKCNLIPVIAKSDILTDEEILSFKKTIMNQLIQSNIELFKPPIYSNDDAENSHLSERLFSSLPYAVIGSNDIVENYSGNQVRGRSYPWGVIEVDNDNHSDFNLLKNLLIKQFMEELKERTSKILYENYRSSKLAKLGIKQDNSVFKEFDPISKQQEEKTLHEAKLAKLEIEMKTVFQQKVSEKEKKLQKSETELFARHKEMKEKLTKQLKALEDKKKQLELSINSASPNVNHSPVPTKKKGFLR
chain 4: MDPLSSVQPASYVGFDTITNQIEHRLLKKGFQFNIMVVGQSGLGKSTLINTLFASHLIDSATGDDISALPVTKTTEMKISTHTLVEDRVRLNINVIDTPGFGDFIDNSKAWEPIVKYIKEQHSQYLRKELTAQRERFITDTRVHAILYFLQPNGKELSRLDVEALKRLTEIANVIPVIGKSDTLTLDERTEFRELIQNEFEKYNFKIYPYDSEELTDEELELNRSVRSIIPFAVVGSENEIEINGETFRGRKTRWSAINVEDINQCDFVYLREFLIRTHLQDLIETTSYIHYEGFRARQLIALKENANSRSSAHMSSNAIQR
B2: the binding result in data set [3] is recorded as “binds”.

B3: Cdc11-capped septin hetero-octamers containing Cdc10-GFP as the sole source of Cdc10 (complex, S. cerevisiae)
chain 1: MSGIIDASSALRKRKHLKRGITFTVMIVGQSGSGRSTFINTLCGQQVVDTSTTILLPTDTSTEIDLQLREETVELEDDEGVKIQLNIIDTPGFGDSLDNSPSFEIISDYIRHQYDEILLEESRVRRNPRFKDGRVHCCLYLINPTGHGLKEIDVEFIRQLGSLVNIIPVISKSDSLTRDELKLNKKLIMEDIDRWNLPIYNFPFDEDEISDEDYETNMYLRTLLPFAIIGSNEVYEMGGDVGTIRGRKYPWGILDVEDSSISDFVILRNALLISHLHDLKNYTHEILYERYRTEALSGESVAAESIRPNLTKLNGSSSSSTTTRRNTNPFKQSNNINNDVLNPASDMHGQSTGENNETYMTREEQIRLEEERLKAFEERVQQELLLKRQELLQREKELREIEARLEKEAKIKQEE
chain 2: MSAATATAAPVPPPVGISNLPNQRYKIVNEEGGTFTVMLCGESGLGKTTFINTLFQTVLKRADGQQHRQEPIRKTVEIDITRALLEEKHFELRVNVIDTPGFGDNVNNNKAWQPLVDFIDDQHDSYMRQEQQPYRTKKFDLRVHAVLYFIRPTGHGLKPIDIETMKRLSTRANLIPVIAKADTLTAQELQQFKSRIRQVIEAQEIRIFTPPLDADSKEDAKSGSNPDSAAVEHARQLIEAMPFAIVGSEKKFDNGQGTQVVARKYPWGLVEIENDSHCDFRKLRALLLRTYLLDLISTTQEMHYETYRRLRLEGHENTGEGNEDFTLPAIAPARKLSHNPRYKEEENALKKYFTDQVKAEEQRFRQWEQNIVNERIRLNGDLEEIQGKVKKLEEQVKSLQVKKSHLK
chain 3: MSLKEEQVSIKQDPEQEERQHDQFNDVQIKQESQDHDGVDSQYTNGTQNDDSERFEAAESDVKVEPGLGMGITSSQSEKGQVLPDQPEIKFIRRQINGYVGFANLPKQWHRRSIKNGFSFNLLCVGPDGIGKTTLMKTLFNNDDIEANLVKDYEEELANDQEEEEGQGEGHENQSQEQRHKVKIKSYESVIEENGVKLNLNVIDTEGFGDFLNNDQKSWDPIIKEIDSRFDQYLDAENKINRHSINDKRIHACLYFIEPTGHYLKPLDLKFMQSVYEKCNLIPVIAKSDILTDEEILSFKKTIMNQLIQSNIELFKPPIYSNDDAENSHLSERLFSSLPYAVIGSNDIVENYSGNQVRGRSYPWGVIEVDNDNHSDFNLLKNLLIKQFMEELKERTSKILYENYRSSKLAKLGIKQDNSVFKEFDPISKQQEEKTLHEAKLAKLEIEMKTVFQQKVSEKEKKLQKSETELFARHKEMKEKLTKQLKALEDKKKQLELSINSASPNVNHSPVPTKKKGFLR
chain 4: MDPLSSVQPASYVGFDTITNQIEHRLLKKGFQFNIMVVGQSGLGKSTLINTLFASHLIDSATGDDISALPVTKTTEMKISTHTLVEDRVRLNINVIDTPGFGDFIDNSKAWEPIVKYIKEQHSQYLRKELTAQRERFITDTRVHAILYFLQPNGKELSRLDVEALKRLTEIANVIPVIGKSDTLTLDERTEFRELIQNEFEKYNFKIYPYDSEELTDEELELNRSVRSIIPFAVVGSENEIEINGETFRGRKTRWSAINVEDINQCDFVYLREFLIRTHLQDLIETTSYIHYEGFRARQLIALKENANSRSSAHMSSNAIQR
Turning to B3, the binding result in data set [3] is given as “binds”.

B4: Bni5(314–448) C375 labeled with AF647 (domain or fragment)
chain: TRRPTNPFRVISVSSNSNSRNGSRKSSLNKYDSPVSSPITSASELGSIAKLEKRHDYLSMKCIKLQKEIDYLNKMNAQGSLSMEDGKRLHRAVVKLQEYLDKKTKEKYEVGVLLSRHLRKQIDRGENGQFWIGTK
modifications: AF647 (Alexa Fluor 647 maleimide) on C375
By EC50 is commonly meant the midpoint of the concentration-response curve. A higher EC50 goes with a less potent agent. For B4, the half-maximal effective concentration (EC50) in data set [4] came out at 614 nM.

B5: Bni5(C144R C266F) labeled with AF647 at C375 (natural protein)
chain: MGLDQDKIKKRLSQIEIDINQMNQMIDENLQLVEPAEDEAVEDNVKDTGVVDAVKVAETALFSGNDGADSNPGDSAQVEEHKTAQVHIPTENEANKSTDDPSQLSVTQPFIAKEQITHTAIAIGDSYNSFVANSAGNEKAKDSRTENKEDGTVNIDQNRGEADVEIIENNDDEWEDEKSDVEEGRVDKGTEENSEIESFKSPMPQNNTLGGENKLDAELVLDKFSSANKDLDIQPQTIVVGGDNEYNHESSRLADQTPHDDNSENFPNRSGGSTPLDSQTKIFIPKKNSKEDGTNINHFNSDGDGQKKMANFETRRPTNPFRVISVSSNSNSRNGSRKSSLNKYDSPVSSPITSASELGSIAKLEKRHDYLSMKCIKLQKEIDYLNKMNAQGSLSMEDGKRLHRAVVKLQEYLDKKTKEKYEVGVLLSRHLRKQIDRGENGQFWIGTK
modifications: AF647 (Alexa Fluor 647 maleimide) on C375
By Kd is commonly meant the equilibrium constant for the complex coming apart. Take B5: the Kd in data set [4] was 154 nM.

B6: (His)8-3C protease cleavage site-Bni5 fusion (wild-type Bni5), P53890 1-448 (natural protein)
chain: MGLDQDKIKKRLSQIEIDINQMNQMIDENLQLVEPAEDEAVEDNVKDTGVVDAVKVAETALFSGNDGADSNPGDSAQVEEHKTAQVHIPTENEANKSTDDPSQLSVTQPFIAKEQITHTAIAIGDSYNSFVANSAGNEKAKDSCTENKEDGTVNIDQNRGEADVEIIENNDDEWEDEKSDVEEGRVDKGTEENSEIESFKSPMPQNNTLGGENKLDAELVLDKFSSANKDLDIQPQTIVVGGDNEYNHESSRLADQTPHDDNSENCPNRSGGSTPLDSQTKIFIPKKNSKEDGTNINHFNSDGDGQKKMANFETRRPTNPFRVISVSSNSNSRNGSRKSSLNKYDSPVSSPITSASELGSIAKLEKRHDYLSMKCIKLQKEIDYLNKMNAQGSLSMEDGKRLHRAVVKLQEYLDKKTKEKYEVGVLLSRHLRKQIDRGENGQFWIGTK
As to B6, the stoichiometry N in data set [5] is 2; in data set [6] it was 2 and 4.
